Measured values: patent publication US20230293738A1 (Y MABS THERAPEUTICS, published 2023)

How the values were obtained:
Test in all cases: SPR, triplicate
recombinant mouse B7-H3 = biological target: T1, recombinant mouse B7-H3 (mouse, UniProt Q8VE98 29-244, limits assumed)
T1 sequence (looked up): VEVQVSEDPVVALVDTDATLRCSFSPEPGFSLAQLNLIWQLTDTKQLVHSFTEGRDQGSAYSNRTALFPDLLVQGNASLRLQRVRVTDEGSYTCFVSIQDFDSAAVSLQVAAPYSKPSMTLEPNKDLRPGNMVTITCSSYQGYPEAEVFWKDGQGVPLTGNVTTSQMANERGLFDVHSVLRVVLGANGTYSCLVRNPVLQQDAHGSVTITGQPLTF

recombinant rat B7-H3 = biological target: T2, recombinant rat B7-H3 (rat, UniProt Q7TPB4 29-244, limits assumed)
T2 sequence (looked up): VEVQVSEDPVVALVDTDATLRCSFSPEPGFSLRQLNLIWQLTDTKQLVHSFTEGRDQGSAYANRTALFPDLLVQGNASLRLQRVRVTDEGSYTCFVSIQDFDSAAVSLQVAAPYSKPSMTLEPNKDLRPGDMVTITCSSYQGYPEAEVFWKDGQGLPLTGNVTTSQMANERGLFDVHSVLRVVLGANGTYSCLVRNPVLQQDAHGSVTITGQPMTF

recombinant monkey B7-H3 = biological target: T3, recombinant monkey B7-H3 (monkey)
T3 chain: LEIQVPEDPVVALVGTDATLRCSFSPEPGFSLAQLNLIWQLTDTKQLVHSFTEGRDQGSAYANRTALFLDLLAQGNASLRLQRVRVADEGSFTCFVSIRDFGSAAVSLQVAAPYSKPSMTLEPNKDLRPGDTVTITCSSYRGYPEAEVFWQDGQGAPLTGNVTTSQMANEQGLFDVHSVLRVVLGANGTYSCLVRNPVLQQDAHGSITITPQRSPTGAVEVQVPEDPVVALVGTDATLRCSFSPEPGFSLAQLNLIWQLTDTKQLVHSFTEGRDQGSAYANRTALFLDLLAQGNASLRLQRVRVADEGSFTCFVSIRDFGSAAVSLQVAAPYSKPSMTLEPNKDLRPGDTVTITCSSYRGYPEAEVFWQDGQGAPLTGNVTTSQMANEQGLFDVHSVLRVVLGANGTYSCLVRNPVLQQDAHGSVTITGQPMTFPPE

B1: 8H9 antibody comprising a light chain according to SEQ ID No.: 2 and heavy chain according to SEQ ID No.: 1 (antibody, mouse IgG1, kappa, V domains shown)
VH: QVQLQQSGAELVKPGASVKLSCKASGYTFTNYDINWVRQRPEQGLEWIGWIFPGDGSTQYNEKFKGKATLTTDTSSSTAYMQLSRLTSEDSAVYFCARQTTATWFAYWGQGTLVTVSA
VL: DIVMTQSPATLSVTPGDRVSLSCRASQSISDYLHWYQQKSHESPRLLIKYASQSISGIPSRFSGSGSGSDFTLSINSVEPEDVGVYYCQNGHSFPLTFGAGTKLELKR
notes: Unconjugated mouse IgG1 mAb; also called m8H9; murine 8H9
In the case of B1, the binding result (recombinant mouse B7-H3) is reported as “no binding (tested: 3 µg/mL)”, the binding result (recombinant rat B7-H3) is reported as “no binding (tested: 3 µg/mL)” and the Kd (recombinant monkey B7-H3) is reported as 1.6 pM. It also gave a koff (recombinant monkey B7-H3) of 1e-05 s⁻¹ and a kon (recombinant monkey B7-H3) of 6.5e+06 M⁻¹ s⁻¹.
